Measured values reported in patent publication US20220031745A1.

What was measured:
Assay in all cases: quantitative flow cytometry, anti-myc staining of CD8+ T cells; ABC = number of receptors/cell; UnT T cells read ~350
[1] = biological target: low affinity anti-Her2 CAR (4D5 variant LOW scFv, CD8 transmembrane, 41BB, CD3zeta) (UniProt P01732)
[2] = biological target: low affinity anti-Her2 SynNotch receptor (4D5 variant LOW scFv, mouse Notch1 minimal regulatory region, Gal4 DBD VP64) (mouse) (UniProt Q01705)
[3] = biological target: high affinity anti-Her2 CAR (4D5 variant HIGH scFv, CD8 transmembrane, 41BB, CD3zeta) (UniProt P01732)

ABC (antibody binding capacity) [1]: 7600
ABC (antibody binding capacity) [2]: 2550
ABC (antibody binding capacity) [3]: 19000
Substance: Anti-myc Alexa-647 (antibody)
